The values below are quoted from earlier work in article PMC10830413.

Read-outs that look alike come from different tables or passages of the source.

The term Kd denotes the constant that tells how readily two partners part at equilibrium.

For data set [1], the target named is LPHN3 (UniProt Q9HAR2).
The target of data set [2] is LPHN3 (UniProt Q9HAR2). The source holds these as a separate data set.

Sequence of UniProt Q9HAR2 (Q9HAR2 20-862): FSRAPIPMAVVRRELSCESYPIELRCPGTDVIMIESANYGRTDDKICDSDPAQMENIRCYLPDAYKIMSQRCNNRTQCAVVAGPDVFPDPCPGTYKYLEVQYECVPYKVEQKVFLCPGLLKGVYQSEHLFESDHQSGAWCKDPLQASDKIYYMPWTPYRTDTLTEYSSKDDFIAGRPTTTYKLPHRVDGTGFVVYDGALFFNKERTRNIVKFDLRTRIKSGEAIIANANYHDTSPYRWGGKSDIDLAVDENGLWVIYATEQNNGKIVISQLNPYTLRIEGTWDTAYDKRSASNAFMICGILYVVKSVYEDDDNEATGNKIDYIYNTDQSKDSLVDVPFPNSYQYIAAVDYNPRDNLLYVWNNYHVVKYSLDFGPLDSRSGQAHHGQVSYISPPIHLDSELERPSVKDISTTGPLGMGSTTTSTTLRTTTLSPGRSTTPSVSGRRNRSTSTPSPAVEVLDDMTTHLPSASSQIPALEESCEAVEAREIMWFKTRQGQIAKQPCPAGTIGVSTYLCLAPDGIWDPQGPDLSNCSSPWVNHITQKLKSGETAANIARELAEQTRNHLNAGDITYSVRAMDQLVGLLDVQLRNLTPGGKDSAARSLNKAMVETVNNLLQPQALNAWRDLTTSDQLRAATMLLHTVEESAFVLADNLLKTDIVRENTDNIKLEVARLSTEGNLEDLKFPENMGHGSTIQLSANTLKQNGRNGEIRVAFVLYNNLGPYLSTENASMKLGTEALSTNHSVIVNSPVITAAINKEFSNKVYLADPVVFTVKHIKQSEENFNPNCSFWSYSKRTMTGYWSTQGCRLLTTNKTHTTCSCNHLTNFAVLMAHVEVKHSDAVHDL

As for TENM2 (from UniProt Q9NT68), the Kd in the data set with LPHN3 [1] is 500 nM.
Take FLRT3 (from UniProt Q9NZU0): the Kd with LPHN3 [2] was 15 nM.
